Patent publication US20220098328A1, “ANTIBODIES TO M(H)DM2/4 AND THEIR USE IN DIAGNOSING AND TREATING CANCER” (NomoCan Pharmaceuticals LLC, priority 2017, published 2022)

B1: NMC-204: mouse monoclonal antibody of the IgG3 isotype that binds to NMC-P2 (SEQ ID NO:2); VH SEQ ID NO:38, VL SEQ ID NO:39 (antibody, V domains shown)
VH: EVQLQESGSVLVRPGASVKLSCKASGDTLSGSWMHWAMQRPGQGLEWIGEIHLNRGTTNYNEKFKGKATVTVDTSSSTAYVDLSSLTSEDSAVYYCARSPGFAYWGQGTLVTVSA
VL: GIVMTQAAPSVPVTPGESVSISCRSSKSLLHSNGNSYLYWFLQRPGQSPQLLIYRMSNLASGVPDRFSGSGSGTAFTLRITRVEAEDVGVYYCMQHLEYPFTFGSGTKLEIK
modifications: mAb NMC-204 Heavy Chain Variable Region; mAb NMC-204 Light Chain Variable Region
B2: NMC-H103 (VH4/VK3): humanized NMC-103 variant, human IgG1, VH4 (SEQ ID NO:299) and VK3 (SEQ ID NO:297) (antibody, V domains shown)
VH: EVQLVESGGGLVQPGPSLRLSCTTSGFTFTHYYMSWVRQAPGKGLEWLGFIRNKAKGYTAEYSASVKGRFTISRDNSKSTLYLQMNSLRAEDTAVYYCARDIGDNWGQGTLVTVSS
VL: DIVMTQTPLSSPVTLGQPASISCRSSKNLLHSNGITYLYWYLQKPGQSPQLLISRVSNLASGVPDRFSGSESGTDFTLKISRVEAEDVGVYFCAQLLELPYTFGGGTKVEIK
modifications: human IgG1 constant regions lacking entries; mAb NMC-H103.VH4Heavy Chain Variable Region; mAb NMC-H103.VK3Light Chain Variable Region

Columns and labels:
[1] = tested on: mouse Lewis Lung cancer LL/2 cells; assay: LL/2 syngeneic mouse model of lung cancer; assay type: in vivo; conditions: LL/2 s.c. in C57BL/6 mice; 0.4 mg/kg i.p. 3 times a week for 3 weeks, started with tumor cell inoculation; by day 21
Description: Methodology used (Syngeneic Mouse Models of lung, colon and pancreatic cancer): To investigate the anti-tumor effects of HDM2-specific antibodies on lung, colon and pancreatic tumors in vivo, three well-known syngeneic mouse models of lung, colon and pancreatic cancer were used (Sharma et al., 1999, J. Immunol. 163 (9):5020-5028; McIntyre, 2015, Bioassays 37(8):909-920; Li, et al., 2015, Sci. Rep. 5:7856). Subcutaneous tumors were prepared by implanting either mouse Lewis Lung cancer LL/2 cells (2.5×10^5 cells/mouse), mouse colon cancer MC-38 cells (5×10^5 cells/mouse) or mouse pancreatic cancer Panc-2 cells (2×10^6 cells/mouse) in the right flanks of 8-week-old female C57BL/6 mice (n=6-7). The mice were returned to their respective cages after tumor implantation. From day 7 after tumor implantation, the tumor volumes were measured 2 times/week with a digital caliper. In the case of MC-38 and Panc-2 study, treatment started when the tumors reached an average of 70-80 mm^3. In the case of LL/2 study, tumor cell inoculation and treatment were initiated simultaneously. Mice were micro-chipped and registered following tumor implantation. […]

[2] = tested on: human lung cancer A549 cells; assay: A549 tumors in NSG mice with or without Hu-PBMCs; assay type: in vivo; conditions: 1 i.p. dose 10 mg/kg, n=4
Description: Subcutaneous tumors were prepared by implanting either mouse colon MC-38 cells (5×10^5 cells/mouse), human lung cancer A549 cells (5×10^6 cells/mouse) or mouse lung cancer M109 cells (0.5×10^5 cells/mouse) in the right flanks of NOD scid gamma mice (NSG: NOD.Cg-Prkdc^scidIl2rg^tm1Wjl/SzJ) purchased from Jacksons Laboratory. From day 7 after tumor implantation, the tumor volumes were measured 2 times/week with a digital caliper. In the case of mouse colon MC-38 cells and human lung cancer A549 cells study in NSG mice, once tumors reached an average volume of 300-400 mm^3, mice were randomly divided into 3 groups (n=4) and 7×10^6 human PBMCs (Stem Cell Technologies Cat #70025) was injected into the tail vein of mice in groups 1 and 3. Seven days later, in the case of mouse colon MC-38 cells study, mAb NMC-C303 antibody (10 mg/kg) was injected intraperitoneally (i.p.) to mice in groups 2 and 3 and human isotype control antibody (BioXCell BP02) into mice in group 1 on days 33 and 35 post tumor inoculation. In the case of human lung cancer A549 cells study, seven days post PBMC injection, mice in group 2 and 3 received 1 intraperitoneal injection of mAb NMC-H103 (VH4/VK3) (10 mg/kg) while mice in group 1 received 1 injection of human isotype control antibody (BioXCell BP02) and tumors were measure 5 days later. […]

Molecule | tumor volume [1] [mm^3] | average tumor volume ([2]; NSG mice in presence of Hu-PBMCs) [mm^3] | average tumor volume ([2]; NSG mice in the absence of Hu-PBMCs) [mm^3]
B1 | 1446 | – | –
B2 | – | 784 | 1367
